Results: patent publication US20260266828A1, “BIOMARKERS FOR PREDICTING CANCER TREATMENT EFFICACY” (Arcus Biosciences, Inc., priority 2023, published 2026)

Tested on: CXCL9, CXCL10, CXCL11, IL-12B, IL-18, IL-6, IFNγ, TNFα
Experiment: Serum cytokines, Meso Scale Discovery multiplex assays, baseline and C2D1
Type: in vivo, human
Protocol: Soluble biomarkers were retrospectively analyzed in baseline and on-treatment peripheral blood derived samples obtained from a subset of subjects enrolled in the clinical trial of Example 2. Baseline samples were obtained on day 1 of cycle 1 (CID1), prior to administration of any study drugs. On-treatment samples were obtained on day 1 of cycle 2 (C2D1), prior to administration of study drugs on that day.
Blood collected in serum separator tubes was allowed to clot for 30-60 minutes before centrifugation at 1300 g for 10 minutes to separate the serum. Serum was isolated and stored at −80° C. until cytokine analysis. Serum cytokines were quantified in multiplex assays using the Meso Scale Discovery platform following the manufacturer's protocol. Briefly, plates were coated with biotinylated capture antibodies specific to the analyte of interest bound to linkers specific to unique spots in each well of a 96-well plate. Serum samples, assessed in duplicate, were diluted 8-fold to quantify CXCL9, CXCL10, CXCL11 and IL-18 in a U-plex assay, diluted 10-fold to quantify IL-12B in a U-plex assay, and diluted 5-fold to quantify IFNγ, TNFα and IL-6 in the S-plex assay. Samples were incubated on linker/capture antibody-coated plates, followed by detection with a sulfo-tag-labelled antibody for the U-plex assays and a TURBO-tag-labelled antibody for the S-plex assay. For the S-plex assay, additional steps incorporated in the manufacturer's protocol to amplify signal with enhance solution and detection solution were followed. Following addition of read buffer, the electrochemiluminescent signal was measured on a MESO Sector S 600 instrument. Between each step of the protocol plates were washed with 0.05% Tween-PBS. A standard curve was generated for each plate using a 4-parameter logistic fit with 1/y^2 weighting. Cytokine concentrations in samples were interpolated using the standard curve, allowing quantification of the analyte of interest. Fold change from baseline was calculated as a ratio of the cytokine concentration at C2D1 over the cytokine concentration at baseline. A linear mixed model performed on log transformed raw cytokine values with baseline values as covariates assessed the difference in cytokine levels over time and between treatment groups.

B1: zimberelimab (antibody, chains of the INN, looked up, V domains shown)
VH: QLQLQESGPGLVKPSETLTLTCTVSADSISSTTYYWVWIRQPPGKGLEWIGSISYSGSTYYNPSLKSRVTVSVDTSKNQFSLKLNSVAATDTALYYCARHLGYNGRYLPFDYWGQGTLVTVSS
VL: QSALTQPASVSGSPGQSITISCTGTSSDVGFYNYVSWYQQHPGKAPELMIYDVSNRPSGVSDRFSGSKSGNTASLTISGLQAEDEADYYCSSYTSISTWVFGGGTKLTVL
notes: zimberelimab monotherapy 360 mg IV Q3W; anti-PD-1 antibody
- CXCL9, Fold change, median (C2D1 over baseline): 2.4
- CXCL10, Fold change, median (C2D1 over baseline): 1.7
- CXCL11, Fold change, median (C2D1 over baseline): 1.6
- IFNγ, Fold change, median (C2D1 over baseline): 1.6
- IL-6, Fold change, median (C2D1 over baseline): 1.0
- IL-12B, Fold change, median (C2D1 over baseline): 1.5
- IL-18, Fold change, median (C2D1 over baseline): 1.2
- TNFα, Fold change, median (C2D1 over baseline): 1.2
- CXCL9, C2D1, median (day 1 of cycle 2, pre-dose): 621 pg/mL
- CXCL10, C2D1, median (day 1 of cycle 2, pre-dose): 639 pg/mL
- CXCL11, C2D1, median (day 1 of cycle 2, pre-dose): 172 pg/mL
- IFNγ, C2D1, median (day 1 of cycle 2, pre-dose): 1100 fg/mL
- IL-6, C2D1, median (day 1 of cycle 2, pre-dose): 14385 fg/mL
- IL-12B, C2D1, median (day 1 of cycle 2, pre-dose): 284 pg/mL
- IL-18, C2D1, median (day 1 of cycle 2, pre-dose): 779 pg/mL
- TNFα, C2D1, median (day 1 of cycle 2, pre-dose): 1336 fg/mL
